Reference: IntAct's records for PubMed 22807449

B1: Natural cytotoxicity triggering receptor 3 (Homo sapiens), O14931 (parent)
chain: MAWMLLLILIMVHPGSCALWVSQPPEIRTLEGSSAFLPCSFNASQGRLAIGSVTWFRDEVVPGKEVRNGTPEFRGRLAPLASSRFLHDHQAELHIRDVRGHDASIYVCRVEVLGLGVGTGNGTRLVVEKEHPQLGAGTVLLLRAGFYAVSFLSVAVGSTVYYQGKCLTWKGPRRQLPAVVPAPLPPPCGSSAHLLPPVPGG
partner: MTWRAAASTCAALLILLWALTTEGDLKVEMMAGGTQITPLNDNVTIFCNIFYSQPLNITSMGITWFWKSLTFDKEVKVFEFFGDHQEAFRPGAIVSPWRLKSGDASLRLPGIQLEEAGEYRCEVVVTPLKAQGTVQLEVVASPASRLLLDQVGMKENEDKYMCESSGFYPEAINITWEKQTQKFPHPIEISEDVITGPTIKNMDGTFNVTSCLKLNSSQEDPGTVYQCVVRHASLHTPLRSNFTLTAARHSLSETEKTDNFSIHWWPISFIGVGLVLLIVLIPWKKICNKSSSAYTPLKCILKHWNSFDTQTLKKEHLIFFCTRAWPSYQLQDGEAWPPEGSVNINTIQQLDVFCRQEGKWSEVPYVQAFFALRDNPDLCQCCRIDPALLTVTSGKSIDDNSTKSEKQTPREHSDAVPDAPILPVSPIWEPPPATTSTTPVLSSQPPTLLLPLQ
B2: Natural cytotoxicity triggering receptor 3 (Homo sapiens), O14931 (parent)
chain: B1 chain

Variants of: B1
Conditions: with nr3l1_human NCR3LG1, Q68D85

Variant | effect of a mutation on the interaction
MAWMLLLILIMVHPGSCALWVSQPPEIRTLEGSSAFLPCSFQASQGRLAIGSVTWFRDEVVPGKEVRNGTPEFRGRLAPLASSRFLHDHQAELHIRDVRGHDASIYVCRVEVLGLGVGTGNGTRLVVEKEHPQLGAGTVLLLRAGFYAVSFLSVAVGSTVYYQGKCLTWKGPRRQLPAVVPAPLPPPCGSSAHLLPPVPGG [N42Q] | disrupting interaction strength
MAWMLLLILIMVHPGSCALWVSQPPEIRTLEGSSAFLPCSFQASQGRLAIGSVTWFRDEVVPGKEVRNGTPEFRGRLAPLASSRFLHDHQAELHIRDVRGHDASIYVCRVEVLGLGVGTGQGTRLVVEKEHPQLGAGTVLLLRAGFYAVSFLSVAVGSTVYYQGKCLTWKGPRRQLPAVVPAPLPPPCGSSAHLLPPVPGG [N42Q;N121Q] | disrupting interaction strength
MAWMLLLILIMVHPGSCALWVSQPPEIRTLEGSSAFLPCSFQASQGRLAIGSVTWFRDEVVPGKEVRQGTPEFRGRLAPLASSRFLHDHQAELHIRDVRGHDASIYVCRVEVLGLGVGTGQGTRLVVEKEHPQLGAGTVLLLRAGFYAVSFLSVAVGSTVYYQGKCLTWKGPRRQLPAVVPAPLPPPCGSSAHLLPPVPGG [N42Q;N68Q;N121Q] | disrupting interaction strength
MAWMLLLILIMVHPGSCALWVSQPPEIRTLEGSSAFLPCSFQASQGRLAIGSVTWFRDEVVPGKEVRQGTPEFRGRLAPLASSRFLHDHQAELHIRDVRGHDASIYVCRVEVLGLGVGTGNGTRLVVEKEHPQLGAGTVLLLRAGFYAVSFLSVAVGSTVYYQGKCLTWKGPRRQLPAVVPAPLPPPCGSSAHLLPPVPGG [N42Q;N68Q] | disrupting interaction strength
MAWMLLLILIMVHPGSCALWVSQPPEIRTLEGSSAFLPCSFNASQGRLAIGSVTWFRDEVVPGKEVRQGTPEFRGRLAPLASSRFLHDHQAELHIRDVRGHDASIYVCRVEVLGLGVGTGNGTRLVVEKEHPQLGAGTVLLLRAGFYAVSFLSVAVGSTVYYQGKCLTWKGPRRQLPAVVPAPLPPPCGSSAHLLPPVPGG [N68Q] | decreasing interaction strength
MAWMLLLILIMVHPGSCALWVSQPPEIRTLEGSSAFLPCSFNASQGRLAIGSVTWFRDEVVPGKEVRQGTPEFRGRLAPLASSRFLHDHQAELHIRDVRGHDASIYVCRVEVLGLGVGTGQGTRLVVEKEHPQLGAGTVLLLRAGFYAVSFLSVAVGSTVYYQGKCLTWKGPRRQLPAVVPAPLPPPCGSSAHLLPPVPGG [N68Q;N121Q] | decreasing interaction strength
MAWMLLLILIMVHPGSCALWVSQPPEIRTLEGSSAFLPCSFNASQGRLAIGSVTWFRDEVVPGKEVRNGTPEFRGRLAPLASSRFLHDHQAELHIRDVRGHDASIYVCRVEVLGLGVGTGQGTRLVVEKEHPQLGAGTVLLLRAGFYAVSFLSVAVGSTVYYQGKCLTWKGPRRQLPAVVPAPLPPPCGSSAHLLPPVPGG [N121Q] | with no effect

Variants of: B2
Conditions: with bag6_human BAG6, P46379
Sequence of bag6_human BAG6, P46379 (P46379 whole entry): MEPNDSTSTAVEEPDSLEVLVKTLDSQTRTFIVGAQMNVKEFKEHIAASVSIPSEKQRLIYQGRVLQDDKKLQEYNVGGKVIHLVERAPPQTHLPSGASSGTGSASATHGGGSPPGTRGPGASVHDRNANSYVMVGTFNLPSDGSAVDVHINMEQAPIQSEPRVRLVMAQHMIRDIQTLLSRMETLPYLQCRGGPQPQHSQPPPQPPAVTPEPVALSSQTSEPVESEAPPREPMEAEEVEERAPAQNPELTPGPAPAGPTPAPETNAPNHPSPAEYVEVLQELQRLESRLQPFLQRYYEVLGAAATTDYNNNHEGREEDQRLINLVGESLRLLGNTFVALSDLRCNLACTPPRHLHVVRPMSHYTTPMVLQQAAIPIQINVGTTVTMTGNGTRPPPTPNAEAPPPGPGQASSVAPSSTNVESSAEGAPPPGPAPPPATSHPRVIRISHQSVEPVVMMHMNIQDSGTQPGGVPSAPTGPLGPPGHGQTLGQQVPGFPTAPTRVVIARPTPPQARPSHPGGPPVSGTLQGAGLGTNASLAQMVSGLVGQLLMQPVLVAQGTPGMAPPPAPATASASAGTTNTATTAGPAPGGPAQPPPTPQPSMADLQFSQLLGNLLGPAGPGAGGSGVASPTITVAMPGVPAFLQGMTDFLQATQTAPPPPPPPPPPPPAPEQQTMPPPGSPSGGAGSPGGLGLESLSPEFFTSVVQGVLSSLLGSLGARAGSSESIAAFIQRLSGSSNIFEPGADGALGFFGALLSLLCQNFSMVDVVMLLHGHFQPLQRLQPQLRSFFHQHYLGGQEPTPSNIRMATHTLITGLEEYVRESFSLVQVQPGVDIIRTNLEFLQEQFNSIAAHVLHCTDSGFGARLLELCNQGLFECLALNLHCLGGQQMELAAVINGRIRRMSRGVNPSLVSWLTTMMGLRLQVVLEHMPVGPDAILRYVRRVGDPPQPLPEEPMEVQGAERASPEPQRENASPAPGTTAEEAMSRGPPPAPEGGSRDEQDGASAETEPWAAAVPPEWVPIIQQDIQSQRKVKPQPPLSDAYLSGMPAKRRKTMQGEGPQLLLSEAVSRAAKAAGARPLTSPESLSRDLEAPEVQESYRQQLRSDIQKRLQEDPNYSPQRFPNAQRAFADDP

Variant | effect of a mutation on the interaction
MAWMLLLILIMVHPGSCALWVSQPPEIRTLEGSSAFLPCSFNASQGRLAIGSVTWFRDEVVPGKEVRQGTPEFRGRLAPLASSRFLHDHQAELHIRDVRGHDASIYVCRVEVLGLGVGTGNGTRLVVEKEHPQLGAGTVLLLRAGFYAVSFLSVAVGSTVYYQGKCLTWKGPRRQLPAVVPAPLPPPCGSSAHLLPPVPGG [N68Q] | with no effect
MAWMLLLILIMVHPGSCALWVSQPPEIRTLEGSSAFLPCSFNASQGRLAIGSVTWFRDEVVPGKEVRQGTPEFRGRLAPLASSRFLHDHQAELHIRDVRGHDASIYVCRVEVLGLGVGTGQGTRLVVEKEHPQLGAGTVLLLRAGFYAVSFLSVAVGSTVYYQGKCLTWKGPRRQLPAVVPAPLPPPCGSSAHLLPPVPGG [N68Q;N121Q] | with no effect
MAWMLLLILIMVHPGSCALWVSQPPEIRTLEGSSAFLPCSFQASQGRLAIGSVTWFRDEVVPGKEVRNGTPEFRGRLAPLASSRFLHDHQAELHIRDVRGHDASIYVCRVEVLGLGVGTGNGTRLVVEKEHPQLGAGTVLLLRAGFYAVSFLSVAVGSTVYYQGKCLTWKGPRRQLPAVVPAPLPPPCGSSAHLLPPVPGG [N42Q] | with no effect
MAWMLLLILIMVHPGSCALWVSQPPEIRTLEGSSAFLPCSFQASQGRLAIGSVTWFRDEVVPGKEVRQGTPEFRGRLAPLASSRFLHDHQAELHIRDVRGHDASIYVCRVEVLGLGVGTGNGTRLVVEKEHPQLGAGTVLLLRAGFYAVSFLSVAVGSTVYYQGKCLTWKGPRRQLPAVVPAPLPPPCGSSAHLLPPVPGG [N42Q;N68Q] | with no effect
MAWMLLLILIMVHPGSCALWVSQPPEIRTLEGSSAFLPCSFQASQGRLAIGSVTWFRDEVVPGKEVRQGTPEFRGRLAPLASSRFLHDHQAELHIRDVRGHDASIYVCRVEVLGLGVGTGQGTRLVVEKEHPQLGAGTVLLLRAGFYAVSFLSVAVGSTVYYQGKCLTWKGPRRQLPAVVPAPLPPPCGSSAHLLPPVPGG [N42Q;N68Q;N121Q] | with no effect
MAWMLLLILIMVHPGSCALWVSQPPEIRTLEGSSAFLPCSFNASQGRLAIGSVTWFRDEVVPGKEVRNGTPEFRGRLAPLASSRFLHDHQAELHIRDVRGHDASIYVCRVEVLGLGVGTGQGTRLVVEKEHPQLGAGTVLLLRAGFYAVSFLSVAVGSTVYYQGKCLTWKGPRRQLPAVVPAPLPPPCGSSAHLLPPVPGG [N121Q] | with no effect
MAWMLLLILIMVHPGSCALWVSQPPEIRTLEGSSAFLPCSFQASQGRLAIGSVTWFRDEVVPGKEVRNGTPEFRGRLAPLASSRFLHDHQAELHIRDVRGHDASIYVCRVEVLGLGVGTGQGTRLVVEKEHPQLGAGTVLLLRAGFYAVSFLSVAVGSTVYYQGKCLTWKGPRRQLPAVVPAPLPPPCGSSAHLLPPVPGG [N42Q;N121Q] | with no effect
